Data as given in PMC5399442, “Fatty acid synthase cooperates with protrudin to facilitate membrane outgrowth of cellular protrusions” (Scientific Reports, 2017).
Positions count from the first letter of the chain named.

Tests used:
[1] = biological target: the molecule itself; assay: SDS-resistant dimer on SDS-PAGE with immunoblot; HEK293T cells expressing WT-protrudin exposed to UV light (365 nm) as control; SDS-PAGE and immunoblot with anti-Myc antibody
[2] = biological target: the molecule itself; assay: cross-linking; photo-crosslinking by DiZPK in living HEK293T cells, 48 h after transfection, UV 365 nm for 10 min; SDS-PAGE and immunoblot with anti-Myc antibody

B1: wild-type protrudin with a C-terminal myc tag (natural protein, human, UniProt Q5T4F4-2 1-404, looked up)
chain: MQTSEREGSGPELSPSVMPEAPLESPPFPTKSPAFDLFNLVLSYKRLEIYLEPLKDAGDGVRYLLRWQMPLCSLLTCLGLNVLFLTLNEGAWYSVGALMISVPALLGYLQEVCRARLPDSELMRRKYHSVRQEDLQRGRLSRPEAVAEVKSFLIQLEAFLSRLCCTCEAAYRVLHWENPVVSSQFYGALLGTVCMLYLLPLCWVLTLLNSTLFLGNVEFFRVVSEYRASLQQRMNPKQEEHAFESPPPPDVGGKDGLMDSTPALTPTEDLTPGSVEEAEEAEPDEEFKDAIEEDDEGAPCPAEDELALQDNGFLSKNEVLRSKVSRLTERLRKRYPTNNFGNCTGCSATFSVLKKRRSCSNCGNSFCSRCCSFKVPKSSMGATAPEAQRETVFVCASCNQTLSK
notes: protrudin (ZFYVE27), human, from cDNA; also called WT-protrudin; protrudin-myc; source: HEK293T, transfected (pcDNA3.1-protrudin-myc), in lysate; not shown: c-Myc, C-terminal, kept
stoichiometry N [1]: 2

B2: protrudin with DiZPK incorporated at site D134, C-terminal myc tag (natural protein, human, UniProt Q5T4F4-2 1-404, looked up)
chain: B1 chain with D134K
modifications: DiZPK (3-(3-methyl-3H-diazirin-3-yl)-propamino-carbonyl-Nε-L-lysine) at position 134
notes: protrudin (ZFYVE27), human; codon of D134 changed to the amber codon (TAG) and read as DiZPK, a lysine derivative; The new residue is written as K because DiZPK is an Nε-modified lysine; source: HEK293T, transfected with the MbPylRS/MbtRNACUA pair, cultured with DiZPK, in lysate; not shown: c-Myc, C-terminal, kept
stoichiometry N [2]: 2
